Measurements: patent US20130101601A1 (ANAPTYSBIO, published 2013)

Experiments:
[1] = biological target: T1, human βNGF (Nerve Growth Factor) (human, UniProt P01138 122-241, limits assumed); test: kinetic characterization (Biacore)
T1 construct: In the FACS rounds it was used biotinylated, fluorochrome-labelled or fused to wasabi fluorescent protein; The construct used in the Biacore runs is not described; also called hβNGF

[2] = biological target: T1, human βNGF (Nerve Growth Factor); test: Biacore, purified antibody captured at low density (Rmax<30)
Text: Mutations observed in both strategies not utilized by APE803 were recombined by overlap extension PCR in a combinatorial library, each HC/LC pair was expressed and characterized on Biacore utilizing direct capture of secreted antibodies.

[3] = biological target: T1, human βNGF (Nerve Growth Factor); test: Biacore and flow cytometry-based antigen-binding assays

T1 sequence (P01138 122-241 limits assumed): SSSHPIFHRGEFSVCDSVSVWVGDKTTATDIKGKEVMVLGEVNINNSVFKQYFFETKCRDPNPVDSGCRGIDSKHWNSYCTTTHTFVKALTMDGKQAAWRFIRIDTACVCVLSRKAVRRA

B1: APE803 (antibody, V domains shown)
VH: QVQLVQSGAEVKKPGSSVKVSCKASGDTFSNYATGDTFSNYAISWVRQAPGQGFEWMGGIIPIFGTANYAQKFQGRVTITADESTSTAYMELSSLRSEDTAVYYCARGPEYYAYVWGSYRYNYFDYWGQGTLVTV
VL: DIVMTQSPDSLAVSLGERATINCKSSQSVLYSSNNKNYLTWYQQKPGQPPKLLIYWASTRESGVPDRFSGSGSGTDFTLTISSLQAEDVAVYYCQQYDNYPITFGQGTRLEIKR
notes: HC CDR3 mutation D100A in the context of the APE646 variant
For B1, the Kd [1] was 0.76 nM and the “fold improvement in kon (against APE646)” value [1] was 100 fold.

B2: APE925 (antibody, V domains shown)
VH: QVQLVQSGAEVKKPGSSVKVSCKASGDTFNNYATGDTFSNYAISWVRQAPGQRFEWMGGIIPIFDTANYAQKFQGRVTITADESTNTAYMELSSLRSEDTAVYYCARGPEYYAYVWGSYSYNYFDYWGQGTLVTV
VL: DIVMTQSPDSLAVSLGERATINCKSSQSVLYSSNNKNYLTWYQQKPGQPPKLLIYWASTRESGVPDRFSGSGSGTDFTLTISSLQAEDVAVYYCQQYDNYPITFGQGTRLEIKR
With B2 the Kd [2] was 0.025 nM.

B3: APE391 (antibody, V domains shown)
VH: QVQLVQSGAEVKKPGSSVKVSCKASGGTFSNYAISWVRQAPGQGLEWMGGIIPIFGTANYAQKFQGRVTITADESTSTAYMELSSLRSEDTAVYYCARGPEYYDYVWGSYRYNYFDYWGQGTLVTV
VL: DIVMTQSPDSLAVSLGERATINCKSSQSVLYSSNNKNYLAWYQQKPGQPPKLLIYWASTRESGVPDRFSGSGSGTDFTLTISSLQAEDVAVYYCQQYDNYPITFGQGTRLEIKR
notes: Fully human IgG; also called HC/LC pair from SCC C10A
B3: binds [3].

B4: APE583 (antibody, V domains shown)
VH: QVQLVQSGAEVKKPGSSVKVSCKASGGTFSNYAISWVRQAPGQGFEWMGGIIPIFGTANYAQKFQGRVTITADESTSTAYMELSSLRSEDTAVYYCARGPEYYDYVWGSYRYNYFDYWGQGTLVTV
VL: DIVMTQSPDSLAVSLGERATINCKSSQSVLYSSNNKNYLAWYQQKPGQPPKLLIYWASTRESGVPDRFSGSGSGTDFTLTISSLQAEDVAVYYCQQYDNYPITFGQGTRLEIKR
notes: APE391 with the HC mutation L45F
B4: binds [1].
